The values that follow come from publication PMC5719983, “The Cryoelectron Microscopy Structure of the Type 1 Chaperone-Usher Pilus Rod” (Structure(London, England:1993), 2017).

This series concerns the molecule itself. Briefly: co-sedimentation; in vitro assembly of FimA monomers to pilus rods: 50 μM FimA monomer in 20 mM acetic acid-NaOH pH 5.0, 150 mM NaCl, 7 days; rods pelleted at 186'000 x g, 10 min, 4°C.

B1: Mature FimA without its natural signal sequence (159 residues), refolded FimA monomer (natural protein)
chain: AATTVNGGTVHFKGEVVNAACAVDAGSVDQTVQLGQVRTASLAQEGATSSAVGFNIQLNDCDTNVASKAAVAFLGTAIDAGHTNVLALQSSAAGSATNVGVQILDRTGAALTLDGATFSSETTLNNGTNTIPFQARYFATGAATPGAANADATFKVQYQ
notes: the N-terminal methionine added for cytoplasmic expression was cleaved off quantitatively (measured 15826.0 Da). numbers count on: the mature protein; also called pili assembled in vitro
Turning to B1, the binding result is “binds”.
